Reference: patent publication US20220387555A1 (LUDWIG INSTITUTE FOR CANCER RESEARCH, published 2022)

B1: PD1_4XMUT_M70 (with 6xHis) (receptor)
chain: MASDSPDRPWNPPTFSPALLVVTEGDNATFTCSFSNTSESFVLNWYRMSPSNQDDRLAAFPEDRSQPGQDARFRVTQLPNGRDFHMSVVRARRNDSGTYFCGAISLAPKAKIKESLRAELRVTERRALEHHHHHH
notes: also called soluble monomeric PD1 decoy variant
B2: PD1_6XDM (with 6xHis) (receptor)
chain: MASDSPDRPWNPPTFSPALLVVTEGDNATFTCSFSNTSESFVLNWYRMSPSNQVDRLAAFPEDRSQPGQDARFRVTQLPNGRDFHMSVVRARRNDSGTYFCGAISLAPKWKIKESLRAELRVTERRALEHHHHHH
notes: also called PD-1 decoy variant 6XDM; soluble monomeric PD1 decoy variant

Biological target: T1, human PDL1 protein (human, UniProt Q9NZQ7 19-238, limits assumed)
T1 construct: Plate-coated protein
Experiment: titration ELISA, plates coated with human PD-L1, soluble monomeric decoy, anti-His tag detection

T1 sequence (Q9NZQ7 19-238 limits assumed): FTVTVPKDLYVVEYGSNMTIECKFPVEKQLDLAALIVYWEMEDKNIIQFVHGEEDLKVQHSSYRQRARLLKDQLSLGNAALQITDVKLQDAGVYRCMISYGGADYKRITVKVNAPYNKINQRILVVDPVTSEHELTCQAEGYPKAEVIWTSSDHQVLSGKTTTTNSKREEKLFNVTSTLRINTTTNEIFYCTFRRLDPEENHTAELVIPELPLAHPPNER

Row | Binder | fold better binding than the WT PD1 decoy [fold]
1 | B1 | 10
2 | B2 | ~7.5
